In the supplement of paper PMC7877785:
± gives the uncertainty stated by the source.

Assay: self-splicing fitness, log relative to wild type (ln ratio); higher = more splicing; Tetrahymena group I intron in knt gene, E. coli kanamycin selection, DiMSum; sequences stand for … in CUCUCU…GGAGGGAAAAGUUAUCAGGCAUGCACCUGGUAGCUAGUCUUUAAACCAAUAGAUUGCAUCGGUUUAAAAGGCAAGACCGUCAAAUUGCGGGAAAGGGGUCAACAGCCGUUCAGUACCAAGUCUCAGGGGAAACUUUGAGAUGGCCUUGCAAAGGGUAUGGUAAUAAGCUGACGGACAUGGUCCUAACCACGCAGCCAAGUCCUAAGUCAACAGAUCUUCUGUUGAUAUGGAUGCAGUUCACAGACUAAAUGUCGGUCGGGGAAGAUGUAUUCUUCUCAUAAGAUAUAGUCGGACCUCUCCUUAAUGGGAGCUAGCGGAUGAAGUGAUGCAACACUGGAGCCGCUGGGAACUAAUUUGUAUGCGAAAGUAUAUUGAUUAGUUUUGGAGUACUCGUGGUCG
Method in brief: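 Six replicate transformations of E. coli BL21(DE3) with a pET-22b(+) library were grown overnight at 37°C or 30°C. The library randomised all eight P1ex-region intron nucleotides, the intron lying in the knt kanamycin-resistance gene, and plates were LB agar with or without 25 μg/mL kanamycin plus 100 μg/mL carbenicillin, 50 μM IPTG and 0.2% rhamnose. Pooled colonies were amplicon-sequenced on an Illumina HiSeq 2500, and fitness is the DiMSum error-weighted combination of wild-type-normalised replicate fold changes, kanamycin versus none.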

Row | Sequence | self-splicing fitness (ln) (30 °C) | self-splicing fitness (ln) (37 °C)
1 | AGACAGCAAUAUUACGGUAU | -2.55 ± 0.1 | -0.734 ± 0.091
2 | GCGAAGCAAUAUUACGGGAG | -3.05 ± 0.17 | -2.62 ± 0.22
3 | CCCCAGCAAUAUUACGUCGU | -3.19 ± 0.12 | -2.05 ± 0.12
4 | ACGCAGCAAUAUUACGAUGA | -1.1 ± 0.064 | -0.521 ± 0.068
5 | CGUUAGCAAUAUUACGCCCU | -1.26 ± 0.2 | -0.204 ± 0.19
6 | GCGGAGCAAUAUUACGUGGU | -3.54 ± 0.26 | -3.01 ± 0.4
7 | GGGUAGCAAUAUUACGCUCA | -0.291 ± 0.17 | -0.622 ± 0.26
8 | GUAGAGCAAUAUUACGUAGU |  | -0.866 ± 0.15
9 | UUGAAGCAAUAUUACGGAUG | 0.196 ± 0.1 | 0.219 ± 0.12
10 | GCCUAGCAAUAUUACGUCAU | -2.73 ± 0.2 | -1.4 ± 0.17
11 | CCCAAGCAAUAUUACGCUUG | -3.39 ± 0.18 | -1.92 ± 0.17
12 | UUAAAGCAAUAUUACGUCAG | -0.815 ± 0.065 | 0.0256 ± 0.093
13 | GGAAAGCAAUAUUACGAUCU | -3.9 ± 0.42 | -1.68 ± 0.32
14 | AAUAAGCAAUAUUACGUAAA | -1.89 ± 0.1 | -1.22 ± 0.14
15 | AAGAAGCAAUAUUACGCAGU | -2.66 ± 0.18 | -2.08 ± 0.15
16 | CUAUAGCAAUAUUACGUAGA | -3.52 ± 0.33 | -1.87 ± 0.34
17 | AGUCAGCAAUAUUACGUUCU | -0.318 ± 0.072 | 0.0939 ± 0.11
18 | CGUAAGCAAUAUUACGGAGU | -3.13 ± 0.17 | -2.89 ± 0.19
19 | AUAAAGCAAUAUUACGUGCU | -1.29 ± 0.08 | -0.736 ± 0.11
20 | CUUGAGCAAUAUUACGUCUC | -3.07 ± 0.24 | -2.19 ± 0.27
21 | UCCAAGCAAUAUUACGUGGU | -2.96 ± 0.1 | -1.45 ± 0.092
22 | CGGGAGCAAUAUUACGGCAA | -3.64 ± 0.43 | 
23 | UUACAGCAAUAUUACGGUUC | -1.97 ± 0.1 | -1.32 ± 0.11
24 | CCACAGCAAUAUUACGGGAU | -4.56 ± 0.26 | -2.33 ± 0.15
25 | ACGGAGCAAUAUUACGACAU | -1.947 ± 0.018 | -1.1 ± 0.035

Row | Sequence | self-splicing fitness (ln) (30 °C) | self-splicing fitness (ln) (37 °C)
26 | AAGAAGCAAUAUUACGGACC | -1.28 ± 0.13 | -0.312 ± 0.18
27 | ACCUAGCAAUAUUACGCGCC | -0.396 ± 0.09 | -0.477 ± 0.12
28 | CCGUAGCAAUAUUACGGAUC | -3.86 ± 0.2 | -2.03 ± 0.19
29 | CCAGAGCAAUAUUACGAGGC | -2.82 ± 0.38 | -1.34 ± 0.41
30 | AUGUAGCAAUAUUACGUAGC | -2.56 ± 0.18 | -2.43 ± 0.29
31 | GACCAGCAAUAUUACGUUGU | -1.11 ± 0.047 | -0.336 ± 0.063
32 | UGAAAGCAAUAUUACGAGUC | -3.42 ± 0.28 | -2.28 ± 0.26
33 | GCUGAGCAAUAUUACGGGCC | -2.39 ± 0.32 | -2.27 ± 0.39
34 | UUAUAGCAAUAUUACGUGGA | -2.5 ± 0.41 | -1.23 ± 0.22
35 | GAGUAGCAAUAUUACGAAUC | -2.47 ± 0.23 | -2.31 ± 0.24
36 | AAGCAGCAAUAUUACGUCAA | -1.1 ± 0.091 | -1.36 ± 0.096
37 | UCCUAGCAAUAUUACGGUUU | -1.44 ± 0.083 | -1.16 ± 0.12
38 | UCCUAGCAAUAUUACGUAUU | -4.31 ± 0.2 | -2.48 ± 0.22
39 | AUAUAGCAAUAUUACGCUUA | -1.53 ± 0.16 | -0.0426 ± 0.15
40 | UAUUAGCAAUAUUACGUAAA | -2.63 ± 0.25 | -1.09 ± 0.38
41 | GGAGAGCAAUAUUACGCUGG | -2.21 ± 0.29 | -2.41 ± 0.44
42 | AUUUAGCAAUAUUACGGCGG | -2.31 ± 0.17 | -0.525 ± 0.17
43 | UCGAAGCAAUAUUACGAUGC | -2.65 ± 0.15 | -1.92 ± 0.18
44 | UACCAGCAAUAUUACGUCUG | -3.46 ± 0.13 | -2.46 ± 0.12
45 | UCGUAGCAAUAUUACGGAGA | -2.51 ± 0.18 | -2.53 ± 0.27
46 | GCAAAGCAAUAUUACGGAGA | -2.82 ± 0.45 | 
47 | CGUUAGCAAUAUUACGGAAU |  | -2.07 ± 0.36
48 | UAGAAGCAAUAUUACGAAUU | -2.42 ± 0.46 | -1.29 ± 0.27
49 | CAUCAGCAAUAUUACGCUUA | -1.77 ± 0.13 | -0.562 ± 0.11
